Measured values taken from PMC8564539.

Assays:
Test in all cases: AlphaScreen or HTRF; ALPHA: FLAG-tagged domain mixed with biotin-tagged domain (cell-free translation mixtures), streptavidin donor beads, anti-DYKDDDDK antibody with protein A acceptor beads; 100 mM Tris-HCl pH 8.0, 0.01% Tween 20, 1 mg/mL BSA; 25 °C, 24 h; median of duplicate reactions
CASP1_CARD (human) = CASP1_CARD (human) (UniProt P29466)
NLRC4_CARD (human) = NLRC4_CARD (human) (UniProt Q9NPP4)
FADD_DED-DD (human) = FADD_DED-DD (human) (UniProt Q13158)
PYDC2_PYD (human) = PYDC2_PYD (human) (UniProt Q56P42)
IRAK3_DD (human) = IRAK3_DD (human) (UniProt Q9Y616)
CASP2_CARD (human) = CASP2_CARD (human) (UniProt P42575)
ASC_PYD-CARD (human) = ASC_PYD-CARD (human) (UniProt Q9ULZ3)
CASP10_DED1-DED2 (human) = CASP10_DED1-DED2 (human) (UniProt Q92851)
CASP8_DED1-DED2 (human) = CASP8_DED1-DED2 (human) (UniProt Q14790)
CFLAR_DED1-DED2 (human) = CFLAR_DED1-DED2 (human) (UniProt O15519)
RIPK1_DD (human) = RIPK1_DD (human) (UniProt Q13546)
TNFRSF1A_DD (human) = TNFRSF1A_DD (human) (UniProt P19438)
TRADD_DD (human) = TRADD_DD (human) (UniProt Q15628)
DAPK1_DD (human) = DAPK1_DD (human) (UniProt P53355)
CASP8_DED1 (human) = CASP8_DED1 (human) (UniProt Q14790)

Sequence of FADD_DED-DD (human) (Q13158 whole entry): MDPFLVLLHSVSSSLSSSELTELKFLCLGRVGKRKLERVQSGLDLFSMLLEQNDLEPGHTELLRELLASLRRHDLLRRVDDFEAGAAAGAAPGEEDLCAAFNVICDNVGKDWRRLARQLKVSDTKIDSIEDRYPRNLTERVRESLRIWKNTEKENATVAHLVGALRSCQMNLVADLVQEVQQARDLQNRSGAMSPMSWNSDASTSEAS
Sequence of IRAK3_DD (human) (Q9Y616 whole entry): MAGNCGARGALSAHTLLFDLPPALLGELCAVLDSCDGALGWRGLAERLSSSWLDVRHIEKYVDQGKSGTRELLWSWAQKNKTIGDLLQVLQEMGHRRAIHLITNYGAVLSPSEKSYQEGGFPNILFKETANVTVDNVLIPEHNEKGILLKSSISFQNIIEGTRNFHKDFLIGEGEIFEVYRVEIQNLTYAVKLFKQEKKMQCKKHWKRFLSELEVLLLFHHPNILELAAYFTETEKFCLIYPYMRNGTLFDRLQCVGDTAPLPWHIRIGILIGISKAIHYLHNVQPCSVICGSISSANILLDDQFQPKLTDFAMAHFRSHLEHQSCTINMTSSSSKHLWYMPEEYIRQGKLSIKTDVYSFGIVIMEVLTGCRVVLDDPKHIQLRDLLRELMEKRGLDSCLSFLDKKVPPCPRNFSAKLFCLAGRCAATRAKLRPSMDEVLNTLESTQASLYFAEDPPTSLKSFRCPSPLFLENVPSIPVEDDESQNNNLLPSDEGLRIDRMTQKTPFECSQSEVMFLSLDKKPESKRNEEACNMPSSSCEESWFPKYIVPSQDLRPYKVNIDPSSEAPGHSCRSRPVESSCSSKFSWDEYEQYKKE
Sequence of TNFRSF1A_DD (human) (P19438 356-441): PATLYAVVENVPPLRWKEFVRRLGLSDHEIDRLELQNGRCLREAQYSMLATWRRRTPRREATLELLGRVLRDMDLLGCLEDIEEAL
Sequence of PYDC2_PYD (human) (Q56P42 whole entry): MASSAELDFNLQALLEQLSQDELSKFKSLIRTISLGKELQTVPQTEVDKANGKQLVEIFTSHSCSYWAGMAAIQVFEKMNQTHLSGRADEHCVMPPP
Sequence of CASP1_CARD (P29466 1-91): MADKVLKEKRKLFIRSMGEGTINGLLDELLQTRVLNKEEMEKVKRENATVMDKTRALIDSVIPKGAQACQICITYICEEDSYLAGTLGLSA
Sequence of CASP1_CARD (human) (P29466 1-91): as above
Sequence of ASC_PYD-CARD (human) (Q9ULZ3 whole entry): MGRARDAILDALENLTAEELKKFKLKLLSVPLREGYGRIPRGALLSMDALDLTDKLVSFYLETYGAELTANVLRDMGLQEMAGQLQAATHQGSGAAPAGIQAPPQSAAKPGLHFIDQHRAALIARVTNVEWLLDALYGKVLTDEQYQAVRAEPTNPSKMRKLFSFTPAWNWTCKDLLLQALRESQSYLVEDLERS
Sequence of TRADD_DD (human) (Q15628 179-289): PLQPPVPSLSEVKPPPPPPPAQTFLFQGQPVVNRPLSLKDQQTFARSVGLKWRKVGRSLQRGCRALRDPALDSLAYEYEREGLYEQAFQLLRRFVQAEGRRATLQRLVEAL
Sequence of DAPK1_DD (human) (P53355 1312-1396): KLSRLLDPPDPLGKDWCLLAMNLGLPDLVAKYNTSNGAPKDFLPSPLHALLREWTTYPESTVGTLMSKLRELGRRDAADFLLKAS
Sequence of CRADD_CARD-DD (P78560 whole entry, the tested form may be a part): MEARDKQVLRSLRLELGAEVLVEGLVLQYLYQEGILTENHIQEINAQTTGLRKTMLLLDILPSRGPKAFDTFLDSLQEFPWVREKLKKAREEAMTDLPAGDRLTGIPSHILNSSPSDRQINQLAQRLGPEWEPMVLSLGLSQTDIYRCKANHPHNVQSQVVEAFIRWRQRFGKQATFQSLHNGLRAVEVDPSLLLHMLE
Sequence of FADD_DED-DD (Q13158 whole entry, the tested form may be a part): as the sequence (Q13158 whole entry) above
Sequence of RIPK1_DD (human) (Q13546 583-669): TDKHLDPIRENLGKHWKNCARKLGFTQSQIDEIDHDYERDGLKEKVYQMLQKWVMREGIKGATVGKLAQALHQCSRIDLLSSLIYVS
Sequence of NLRC4_CARD (human) (Q9NPP4 1-88): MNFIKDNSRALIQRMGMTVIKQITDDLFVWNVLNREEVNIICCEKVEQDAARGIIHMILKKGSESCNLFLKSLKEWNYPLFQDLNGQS
Sequence of CASP2_CARD (human) (P42575 32-121): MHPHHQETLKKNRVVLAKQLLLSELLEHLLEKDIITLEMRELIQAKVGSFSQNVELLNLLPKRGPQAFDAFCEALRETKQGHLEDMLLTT

In the case of “ASC_PYD-CARD (from UniProt Q9ULZ3 1-195) (domain or fragment)”, the ALPHA signal (RLU) (CASP1_CARD (human)) was 1730 RLU and the ALPHA signal (RLU) (NLRC4_CARD (human)) was 1690 RLU.

“TRADD_DD (from UniProt Q15628 179-289) (domain or fragment)” gave an ALPHA signal (RLU) (FADD_DED-DD (human)) of 31700 RLU.

For “TNFRSF1A_DD (from UniProt P19438 356-441) (domain or fragment)”, the ALPHA signal (RLU) (FADD_DED-DD (human)) was 5570 RLU.

With “DAPK1_DD (from UniProt P53355 1312-1396) (domain or fragment)” the ALPHA signal (RLU) (PYDC2_PYD (human)) was 3540 RLU.

In the case of “CASP8_DED1 (from UniProt Q14790 2-80) (domain or fragment)”, the ALPHA signal (RLU) (IRAK3_DD (human)) was 968 RLU.

Substance “CRADD_CARD-DD (from UniProt P78560 1-199) (domain or fragment)” has an ALPHA signal (RLU) (CASP2_CARD (human)) of 2420 RLU.

For “CASP1_CARD (from UniProt P29466 1-91) (domain or fragment)”, the ALPHA signal (RLU) (ASC_PYD-CARD (human)) was 4880 RLU.

“FADD_DED-DD (from UniProt Q13158 1-208) (domain or fragment)” gave an ALPHA signal (RLU) (CASP10_DED1-DED2 (human)) of 20700 RLU, an ALPHA signal (RLU) (CASP8_DED1-DED2 (human)) of 11000 RLU and an ALPHA signal (RLU) (CFLAR_DED1-DED2 (human)) of 20100 RLU. For the same substance, the ALPHA signal (RLU) (RIPK1_DD (human)) was 20000 RLU, the ALPHA signal (RLU) (TNFRSF1A_DD (human)) was 964 RLU and the ALPHA signal (RLU) (TRADD_DD (human)) was 39600 RLU.

“CASP8_DED1-DED2 (from UniProt Q14790 1-177) (domain or fragment)” was tested, and the ALPHA signal (RLU) (FADD_DED-DD (human)) was 9380 RLU.

“PYDC2_PYD (from UniProt Q56P42 1-97) (domain or fragment)” showed an ALPHA signal (RLU) (DAPK1_DD (human)) of 970 RLU.

In the case of “RIPK1_DD (from UniProt Q13546 583-669) (domain or fragment)”, the ALPHA signal (RLU) (FADD_DED-DD (human)) was 30600 RLU.

Substance “IRAK3_DD (from UniProt Q9Y616 1-596) (domain or fragment)” has an ALPHA signal (RLU) (CASP8_DED1 (human)) of 1350 RLU.

For “CASP10_DED1-DED2 (from UniProt Q92851 19-187) (domain or fragment)”, the ALPHA signal (RLU) (FADD_DED-DD (human)) was 10200 RLU.
